{
  "source": "patent US20130209454A1",
  "assay_in_all_cases": "cell-based or functional assay",
  "key": {"[1]": {"target": "HIV-1 Env of strain 1006_11_C3_1601 (HIV-1)"}, "[2]": {"target": "HIV-1 Env of strain 3103.v3.c10 (HIV-1)"}, "[3]": {"target": "HIV-1 Env of strain 3817.v2.c59 (HIV-1)"}, "[4]": {"target": "HIV-1 Env of strain 6540.v4.cl (HIV-1)"}, "[5]": {"target": "HIV-1 Env of strain 6811.v7.c18 (HIV-1)"}, "[6]": {"target": "HIV-1 Env of strain 703357.C02 (HIV-1)"}, "[7]": {"target": "HIV-1 Env of strain CAP45.2.00.G3 (HIV-1)"}, "[8]": {"target": "HIV-1 Env of strain CNE17 (HIV-1)"}, "[9]": {"target": "HIV-1 Env of strain CNE58 (HIV-1)"}, "[10]": {"target": "HIV-1 Env of strain Ce1176_A3 (HIV-1)"}, "[11]": {"target": "HIV-1 Env of strain Ce2010_F5 (HIV-1)"}, "[12]": {"target": "HIV-1 Env of strain Ce2060_G9 (HIV-1)"}, "[13]": {"target": "HIV-1 Env of strain Ce703010054_2A2 (HIV-1)"}, "[14]": {"target": "HIV-1 Env of strain P0402_c2_11 (HIV-1)"}, "[15]": {"target": "HIV-1 Env of strain Q259.d2.17 (HIV-1)"}, "[16]": {"target": "HIV-1 Env of strain R2184.c04 (HIV-1)"}, "[17]": {"target": "HIV-1 Env of strain REJO4541.67 (HIV-1)"}, "[18]": {"target": "HIV-1 Env of strain RHPA4259.7 (HIV-1)"}, "[19]": {"target": "HIV-1 Env of strain SC422661.8 (HIV-1)"}, "[20]": {"target": "HIV-1 Env of strain T255-34 (HIV-1)"}, "[21]": {"target": "HIV-1 Env of strain THRO4156.18 (HIV-1)"}, "[22]": {"target": "HIV-1 Env of strain X1254_c3 (HIV-1)"}, "[23]": {"target": "HIV-1 Env of strain ZM109F.PB4 (HIV-1)"}, "[24]": {"target": "HIV-1 Env of strain ZM214M.PL15 (HIV-1)"}, "[25]": {"target": "HIV-1 Env of strain ZM233M.PB6 (HIV-1)"}, "[26]": {"target": "HIV-1 strain 3301.v1.c24 envelope (gp120) (HIV-1)"}, "[27]": {"target": "HIV-1 strain 3415.v1.c1 envelope (gp120) (HIV-1)"}, "[28]": {"target": "HIV-1 strain 6545.v4.c1 envelope (gp120) (HIV-1)"}, "[29]": {"target": "HIV-1 strain 6811.v7.c18 envelope (gp120) (HIV-1)"}, "[30]": {"target": "HIV-1 strain 928-28 envelope (gp120) (HIV-1)"}, "[31]": {"target": "HIV-1 strain AC10.0.29 envelope (gp120) (HIV-1)"}, "[32]": {"target": "HIV-1 strain C1080.c03 envelope (gp120) (HIV-1)"}, "[33]": {"target": "HIV-1 strain C2101.c01 envelope (gp120) (HIV-1)"}, "[34]": {"target": "HIV-1 strain CAP45.2.00.G3 envelope (gp120) (HIV-1)"}, "[35]": {"target": "HIV-1 strain CNE20 envelope (gp120) (HIV-1)"}, "[36]": {"target": "HIV-1 strain Ce1176_A3 envelope (gp120) (HIV-1)"}, "[37]": {"target": "HIV-1 strain Du172.17 envelope (gp120) (HIV-1)"}, "[38]": {"target": "HIV-1 strain PVO.4 envelope (gp120) (HIV-1)"}, "[39]": {"target": "HIV-1 strain Q259.d2.17 envelope (gp120) (HIV-1)"}, "[40]": {"target": "HIV-1 strain Q461.e2 envelope (gp120) (HIV-1)"}, "[41]": {"target": "HIV-1 strain R2184.04 envelope (gp120) (HIV-1)"}, "[42]": {"target": "HIV-1 strain RHPA4259.7 envelope (gp120) (HIV-1)"}, "[43]": {"target": "HIV-1 strain T251-18 envelope (gp120) (HIV-1)"}, "[44]": {"target": "HIV-1 strain T278-50 envelope (gp120) (HIV-1)"}, "[45]": {"target": "HIV-1 strain THRO4156.18 envelope (gp120) (HIV-1)"}, "[46]": {"target": "HIV-1 strain X1193_c1 envelope (gp120) (HIV-1)"}, "[47]": {"target": "HIV-1 strain X2131_C1_B5 envelope (gp120) (HIV-1)"}, "[48]": {"target": "HIV-1 strain ZM233M.PB6 envelope (gp120) (HIV-1)"}, "[49]": {"target": "HIV-1 strain ZM247v1(Rev-) envelope (gp120) (HIV-1)"}, "[50]": {"target": "HIV-1 strain ZM249M.PL1 envelope (gp120) (HIV-1)"}},
  "data": [
    {"binder": "NIH45-46^G54W IgG (antibody, name in Kabat numbering, V domains shown) VH: QVRLSQSGGQMKKPGESMRLSCRASGYEFLNCPINWIRLAPGRRPEWMGWLKPRWGAVNYARKFQGRVTMTRDVYSDTAFLELRSLTSDDTAVYFCTRGKYCTARDYYNWDFEHWGRGAPVTVSS VL: EIVLTQSPATLSLSPGETAIISCRTSQSGSLAWYQQRPGQAPRLVIYSGSTRAAGIPDRFSGSRWGADYNLSISNLESGDFGVYYCQQYEFFGQGTKVQVDI", "values": [
      {"measurement": "neutralization IC50", "setting": "[1]", "value": "< 0.001", "unit": "µg/mL"},
      {"measurement": "neutralization IC50", "setting": "[2]", "value": 0.2, "unit": "µg/mL"},
      {"measurement": "neutralization IC50", "setting": "[3]", "value": "> 50", "unit": "µg/mL"},
      {"measurement": "neutralization IC50", "setting": "[4]", "value": "> 50", "unit": "µg/mL"},
      {"measurement": "neutralization IC50", "setting": "[5]", "value": "< 0.001", "unit": "µg/mL"},
      {"measurement": "neutralization IC50", "setting": "[6]", "value": 3.43, "unit": "µg/mL"},
      {"measurement": "neutralization IC50", "setting": "[7]", "value": 32.2, "unit": "µg/mL"},
      {"measurement": "neutralization IC50", "setting": "[8]", "value": 0.036, "unit": "µg/mL"},
      {"measurement": "neutralization IC50", "setting": "[9]", "value": 0.02, "unit": "µg/mL"},
      {"measurement": "neutralization IC50", "setting": "[10]", "value": 0.16, "unit": "µg/mL"},
      {"measurement": "neutralization IC50", "setting": "[11]", "value": 0.038, "unit": "µg/mL"},
      {"measurement": "neutralization IC50", "setting": "[12]", "value": 0.005, "unit": "µg/mL"},
      {"measurement": "neutralization IC50", "setting": "[13]", "value": 0.027, "unit": "µg/mL"},
      {"measurement": "neutralization IC50", "setting": "[14]", "value": 0.003, "unit": "µg/mL"},
      {"measurement": "neutralization IC50", "setting": "[15]", "value": "< 0.001", "unit": "µg/mL"},
      {"measurement": "neutralization IC50", "setting": "[16]", "value": 0.005, "unit": "µg/mL"},
      {"measurement": "neutralization IC50", "setting": "[17]", "value": 0.002, "unit": "µg/mL"},
      {"measurement": "neutralization IC50", "setting": "[18]", "value": "< 0.001", "unit": "µg/mL"},
      {"measurement": "neutralization IC50", "setting": "[19]", "value": 0.02, "unit": "µg/mL"},
      {"measurement": "improvement of neutralization potency over NIH45-46", "setting": "[20]", "value": "> 700", "unit": "fold"},
      {"measurement": "neutralization IC50", "setting": "[20]", "value": "< 0.001", "unit": "µg/mL"},
      {"measurement": "neutralization IC50", "setting": "[21]", "value": 0.54, "unit": "µg/mL"},
      {"measurement": "neutralization IC50", "setting": "[22]", "value": 0.002, "unit": "µg/mL"},
      {"measurement": "neutralization IC50", "setting": "[23]", "value": 0.002, "unit": "µg/mL"},
      {"measurement": "neutralization IC50", "setting": "[24]", "value": 0.03, "unit": "µg/mL"},
      {"measurement": "neutralization IC50", "setting": "[25]", "value": 0.02, "unit": "µg/mL"},
      {"measurement": "neutralization IC80", "setting": "[26]", "value": 0.004, "unit": "µg/mL"},
      {"measurement": "neutralization IC80", "setting": "[27]", "value": 0.023, "unit": "µg/mL"},
      {"measurement": "neutralization IC80", "setting": "[28]", "value": "> 50", "unit": "µg/mL"},
      {"measurement": "neutralization IC80", "setting": "[29]", "value": 0.033, "unit": "µg/mL"},
      {"measurement": "neutralization IC80", "setting": "[30]", "value": 0.25, "unit": "µg/mL"},
      {"measurement": "neutralization IC80", "setting": "[31]", "value": 0.63, "unit": "µg/mL"},
      {"measurement": "neutralization IC80", "setting": "[32]", "value": 0.91, "unit": "µg/mL"},
      {"measurement": "neutralization IC80", "setting": "[33]", "value": 0.17, "unit": "µg/mL"},
      {"measurement": "neutralization IC80", "setting": "[34]", "value": "> 50", "unit": "µg/mL"},
      {"measurement": "neutralization IC80", "setting": "[35]", "value": 0.48, "unit": "µg/mL"},
      {"measurement": "neutralization IC80", "setting": "[36]", "value": 0.45, "unit": "µg/mL"},
      {"measurement": "neutralization IC80", "setting": "[37]", "value": 42.9, "unit": "µg/mL"},
      {"measurement": "neutralization IC80", "setting": "[38]", "value": 0.16, "unit": "µg/mL"},
      {"measurement": "neutralization IC80", "setting": "[39]", "value": 0.014, "unit": "µg/mL"},
      {"measurement": "neutralization IC80", "setting": "[40]", "value": 0.091, "unit": "µg/mL"},
      {"measurement": "neutralization IC80", "setting": "[41]", "value": 0.036, "unit": "µg/mL"},
      {"measurement": "neutralization IC80", "setting": "[42]", "value": 0.007, "unit": "µg/mL"},
      {"measurement": "neutralization IC80", "setting": "[43]", "value": 0.92, "unit": "µg/mL"},
      {"measurement": "neutralization IC80", "setting": "[44]", "value": "> 50", "unit": "µg/mL"},
      {"measurement": "neutralization IC80", "setting": "[45]", "value": 1.81, "unit": "µg/mL"},
      {"measurement": "neutralization IC80", "setting": "[46]", "value": 0.009, "unit": "µg/mL"},
      {"measurement": "neutralization IC80", "setting": "[47]", "value": 0.24, "unit": "µg/mL"},
      {"measurement": "neutralization IC80", "setting": "[48]", "value": 0.11, "unit": "µg/mL"},
      {"measurement": "neutralization IC80", "setting": "[49]", "value": 2.6, "unit": "µg/mL"},
      {"measurement": "neutralization IC80", "setting": "[50]", "value": 0.007, "unit": "µg/mL"}
    ]}
  ]
}
